Experimental data: US6855515 (MERCK, dated 2005)

Legend:
Experiment in all cases: Ki printed in running text; no assay described
caspase-7 = molecular target: T1, caspase-7 (UniProt P55210 24-198; P55210 207-303, limits assumed)
T1 sequence (looked up) 1: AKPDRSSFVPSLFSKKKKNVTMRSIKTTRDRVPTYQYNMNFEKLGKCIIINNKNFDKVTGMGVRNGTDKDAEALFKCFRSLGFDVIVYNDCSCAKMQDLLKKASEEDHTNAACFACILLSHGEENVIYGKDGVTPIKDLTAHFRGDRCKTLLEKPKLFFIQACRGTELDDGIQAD
T1 sequence (looked up) 2: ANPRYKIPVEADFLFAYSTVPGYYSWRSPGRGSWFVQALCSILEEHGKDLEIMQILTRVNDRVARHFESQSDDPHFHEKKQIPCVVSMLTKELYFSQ

caspase-1 = molecular target: T2, caspase-1 (UniProt P29466 120-297; P29466 317-404, limits assumed)
T2 sequence (looked up) 1: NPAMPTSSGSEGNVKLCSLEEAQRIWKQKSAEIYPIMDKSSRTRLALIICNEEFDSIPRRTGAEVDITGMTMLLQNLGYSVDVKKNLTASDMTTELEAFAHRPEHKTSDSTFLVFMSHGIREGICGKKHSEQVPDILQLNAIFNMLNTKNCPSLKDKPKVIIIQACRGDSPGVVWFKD
T2 sequence (looked up) 2: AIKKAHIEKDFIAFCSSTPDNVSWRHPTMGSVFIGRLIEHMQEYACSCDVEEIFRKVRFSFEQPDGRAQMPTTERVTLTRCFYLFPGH

caspase-8 = molecular target: T3, caspase-8 (UniProt Q14790 217-374; Q14790 385-479, limits assumed)
T3 construct: also called purified caspase-8
T3 sequence (Q14790 217-374 limits assumed, form in doubt, chain 1 of 2): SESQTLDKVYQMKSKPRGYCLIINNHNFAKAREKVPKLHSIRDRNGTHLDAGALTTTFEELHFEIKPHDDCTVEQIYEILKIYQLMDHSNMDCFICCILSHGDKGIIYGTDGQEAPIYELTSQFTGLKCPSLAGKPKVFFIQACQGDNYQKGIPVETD
T3 sequence (Q14790 385-479 limits assumed, form in doubt, chain 2 of 2): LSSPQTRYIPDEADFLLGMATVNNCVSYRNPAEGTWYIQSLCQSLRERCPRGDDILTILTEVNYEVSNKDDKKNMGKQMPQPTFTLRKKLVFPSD

caspase-10 = molecular target: T4, caspase-10 (UniProt Q92851 220-521, limits assumed)
T4 sequence (looked up): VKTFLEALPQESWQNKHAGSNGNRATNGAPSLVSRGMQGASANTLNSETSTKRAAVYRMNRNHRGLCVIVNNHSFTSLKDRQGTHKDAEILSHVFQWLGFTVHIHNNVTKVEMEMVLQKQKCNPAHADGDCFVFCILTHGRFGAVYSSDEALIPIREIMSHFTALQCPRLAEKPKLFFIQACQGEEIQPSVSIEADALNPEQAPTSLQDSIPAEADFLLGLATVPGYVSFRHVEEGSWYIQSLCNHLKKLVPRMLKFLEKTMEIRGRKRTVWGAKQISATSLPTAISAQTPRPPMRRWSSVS

## Ac-DEVD-aldehyde [Ac-DEVD-CHO, N-(N-Ac-Asp-Glu-Val)-3-amino-4-oxobutanoic acid]
caspase-7
  Ki: 1 nM
caspase-1
  Ki: 17 nM
caspase-8
  Ki: 0.92 nM
caspase-10
  Ki: 12 nM

## Ac-YVAD-aldehyde [Ac-YVAD-CHO, N-(N-Ac-Tyr-Val-Ala)-3-amino-4-oxobutanoic acid]
caspase-1
  Ki: 0.6 nM
caspase-10
  Ki: 408 nM
